Data: patent US20180030151A1 (MOGAM INSTITUTE FOR BIOMEDICAL RESEARCH, published 2018)
Where two headings read alike, the source gives them in different places.

Tests used:
[1] = biological target: T1, recombinant human TFPI (tissue factor pathway inhibitor) (human, UniProt P10646 29-304); experiment: cell-based or functional assay
[2] = biological target: T1, recombinant human TFPI (tissue factor …); experiment: cell-based or functional assay; remark: listed apart in the source
[3] = biological target: T1, recombinant human TFPI (tissue factor …); experiment: cell-based or functional assay; remark: listed apart in the source
[4] = biological target: T1, recombinant human TFPI (tissue factor …); experiment: cell-based or functional assay; remark: listed apart in the source
[5] = biological target: T1, recombinant human TFPI (tissue factor …); experiment: cell-based or functional assay; remark: listed apart in the source
[6] = biological target: T1, recombinant human TFPI (tissue factor …); experiment: cell-based or functional assay; remark: listed apart in the source
[7] = biological target: T1, recombinant human TFPI (tissue factor …); experiment: cell-based or functional assay; remark: listed apart in the source
[8] = biological target: T1, recombinant human TFPI (tissue factor …); experiment: cell-based or functional assay; remark: listed apart in the source
[9] = biological target: T1, recombinant human TFPI (tissue factor …); experiment: cell-based or functional assay; remark: listed apart in the source
[10] = biological target: T1, recombinant human TFPI (tissue factor …); experiment: cell-based or functional assay; remark: listed apart in the source
[11] = biological target: T1, recombinant human TFPI (tissue factor …); experiment: cell-based or functional assay; remark: listed apart in the source
[12] = biological target: T1, recombinant human TFPI (tissue factor …); experiment: cell-based or functional assay; remark: listed apart in the source
[13] = biological target: T1, recombinant human TFPI (tissue factor …); experiment: SPR, Biacore T-200; TFPI immobilised on CM5 chip, IgG as analyte
Description: 10 mM of glycine-HCl (pH 1.5) was run at a flow rate of 30 μL/min for 30 seconds, thereby inducing the dissociation of the antibody associated with the TFPI. The affinity in terms of kinetic rate constants (Kₒₙ and Koff) and equilibrium dissociation constant

[14] = biological target: T1, recombinant human TFPI (tissue factor …); experiment: cell-based or functional assay; remark: listed apart in the source
[15] = biological target: T1, recombinant human TFPI (tissue factor …); experiment: cell-based or functional assay; remark: listed apart in the source
[16] = biological target: T1, recombinant human TFPI (tissue factor …); experiment: cell-based or functional assay; remark: listed apart in the source

A405, TF/FVIIa/FX complex assay (FX 5 nM), Ab 1.56 nM [1]: 0.045 | A405, TF/FVIIa/FX complex assay (FX 5 nM), Ab 3.13 nM [1]: 0.049 | A405, TF/FVIIa/FX complex assay (FX 5 nM), Ab 6.25 nM [1]: 0.05 | A405, TF/FVIIa/FX complex assay (FX 5 nM), Ab 12.5 nM [1]: 0.072 | A405, TF/FVIIa/FX complex assay (FX 5 nM), Ab 25 nM [1]: 0.154 | A405, TF/FVIIa/FX complex assay (FX 5 nM), Ab 50 nM [1]: 0.509 | A405, TF/FVIIa/FX complex assay (FX 5 nM), Ab 100 nM [1]: 0.745 | FXa assay % of FXa alone, 2.5 nM Ab, 10 nM TFPI [2]: 9.8% | FXa assay % of FXa alone, 5 nM Ab, 10 nM TFPI [2]: 52.1% | FXa assay % of FXa alone, 10 nM Ab, 10 nM TFPI [2]: 69.4% | FXa assay % of FXa alone, 20 nM Ab, 10 nM TFPI [2]: 81.8% | FXa assay OD, 2.5 nM Ab, 10 nM TFPI [2]: 0.079 | FXa assay OD, 5 nM Ab, 10 nM TFPI [2]: 0.42 | FXa assay OD, 10 nM Ab, 10 nM TFPI [2]: 0.56 | FXa assay OD, 20 nM Ab, 10 nM TFPI [2]: 0.66 | FXa assay % of FXa alone, 2.5 nM Ab, 10 nM TFPI [3]: 7.7% | FXa assay % of FXa alone, 5 nM Ab, 10 nM TFPI [3]: 29.9% | FXa assay % of FXa alone, 10 nM Ab, 10 nM TFPI [3]: 56.8% | FXa assay % of FXa alone, 20 nM Ab, 10 nM TFPI [3]: 75.6% | FXa assay OD, 2.5 nM Ab, 10 nM TFPI [3]: 0.0625 | FXa assay OD, 5 nM Ab, 10 nM TFPI [3]: 0.242 | FXa assay OD, 10 nM Ab, 10 nM TFPI [3]: 0.461 | FXa assay OD, 20 nM Ab, 10 nM TFPI [3]: 0.614 | A405, TF/FVIIa/FX complex assay, Ab 1.56 nM [4]: 0.145 | A405, TF/FVIIa/FX complex assay, Ab 3.13 nM [4]: 0.16 | A405, TF/FVIIa/FX complex assay, Ab 6.25 nM [4]: 0.186 | A405, TF/FVIIa/FX complex assay, Ab 12.5 nM [4]: 0.251 | A405, TF/FVIIa/FX complex assay, Ab 25 nM [4]: 0.88 | A405, TF/FVIIa/FX complex assay, Ab 50 nM [4]: 0.908 | A405, TF/FVIIa/FX complex assay, Ab 100 nM [4]: 0.945 | FXa assay % of FXa alone, 2.5 nM Ab, 10 nM TFPI [5]: 9.2% | FXa assay % of FXa alone, 5 nM Ab, 10 nM TFPI [5]: 43.8% | FXa assay % of FXa alone, 10 nM Ab, 10 nM TFPI [5]: 75.2% | FXa assay % of FXa alone, 20 nM Ab, 10 nM TFPI [5]: 88.6% | FXa assay OD, 2.5 nM Ab, 10 nM TFPI [5]: 0.071 | FXa assay OD, 5 nM Ab, 10 nM TFPI [5]: 0.337 | FXa assay OD, 10 nM Ab, 10 nM TFPI [5]: 0.579 | FXa assay OD, 20 nM Ab, 10 nM TFPI [5]: 0.682 | A405, TF/FVIIa/FX complex assay, Ab 1.56 nM [6]: 0.045 | A405, TF/FVIIa/FX complex assay, Ab 3.13 nM [6]: 0.047 | A405, TF/FVIIa/FX complex assay, Ab 6.25 nM [6]: 0.05 | A405, TF/FVIIa/FX complex assay, Ab 12.5 nM [6]: 0.074 | A405, TF/FVIIa/FX complex assay, Ab 25 nM [6]: 0.273 | A405, TF/FVIIa/FX complex assay, Ab 50 nM [6]: 0.6 | A405, TF/FVIIa/FX complex assay, Ab 100 nM [6]: 0.81 | % of Normalized, TF/FVIIa/FX complex assay, Ab 1.56 nM [7]: 14.5% | % of Normalized, TF/FVIIa/FX complex assay, Ab 3.13 nM [7]: 16% | % of Normalized, TF/FVIIa/FX complex assay, Ab 6.25 nM [7]: 19.4% | % of Normalized, TF/FVIIa/FX complex assay, Ab 12.5 nM [7]: 26.3% | % of Normalized, TF/FVIIa/FX complex assay, Ab 25 nM [7]: 95% | % of Normalized, TF/FVIIa/FX complex assay, Ab 50 nM [7]: 103% | % of Normalized, TF/FVIIa/FX complex assay, Ab 100 nM [7]: 103% | TFPI inhibitory activity, FXa activity assay, Ab 10 nM [8]: 78.4% | effect of inhibiting TFPI, FXa activity assay, Ab 10 nM [8]: 72% | FXa assay % of FXa alone, 2.5 nM Ab, 10 nM TFPI [9]: 6.9% | FXa assay % of FXa alone, 5 nM Ab, 10 nM TFPI [9]: 18.8% | FXa assay % of FXa alone, 10 nM Ab, 10 nM TFPI [9]: 55.2% | FXa assay % of FXa alone, 20 nM Ab, 10 nM TFPI [9]: 78% | FXa assay OD, 2.5 nM Ab, 10 nM TFPI [9]: 0.0335 | FXa assay OD, 5 nM Ab, 10 nM TFPI [9]: 0.091 | FXa assay OD, 10 nM Ab, 10 nM TFPI [9]: 0.267 | FXa assay OD, 20 nM Ab, 10 nM TFPI [9]: 0.378 | FXa assay % of FXa alone, 0.625 nM Ab, 10 nM TFPI [10]: 6% | FXa assay % of FXa alone, 2.5 nM Ab, 10 nM TFPI [10]: 10% | FXa assay OD, 0.625 nM Ab, 10 nM TFPI [10]: 0.061 OD | FXa assay OD, 2.5 nM Ab, 10 nM TFPI [10]: 0.098 OD | FXa assay OD, 10 nM Ab, 10 nM TFPI [10]: 0.753 OD | FXa assay OD, 40 nM Ab, 10 nM TFPI [10]: 0.887 OD | TF/FVIIa/FXa assay % of 0 nM TFPI, 12.5 nM Ab, 50 nM TFPI [11]: 21.2% | TF/FVIIa/FXa assay % of 0 nM TFPI, 50 nM Ab, 50 nM TFPI [11]: 115% | TF/FVIIa/FXa assay % of 0 nM TFPI, 100 nM Ab, 50 nM TFPI [11]: 113% | TF/FVIIa/FXa assay OD, 12.5 nM Ab, 50 nM TFPI [11]: 0.17 OD | TF/FVIIa/FXa assay OD, 25 nM Ab, 50 nM TFPI [11]: 0.696 OD | TF/FVIIa/FXa assay OD, 50 nM Ab, 50 nM TFPI [11]: 0.924 OD | TF/FVIIa/FXa assay OD, 100 nM Ab, 50 nM TFPI [11]: 0.907 OD | FXa assay % of FXa alone, 2.5 nM Ab, 10 nM TFPI [12]: 17.6% | FXa assay % of FXa alone, 5 nM Ab, 10 nM TFPI [12]: 75.9% | FXa assay % of FXa alone, 10 nM Ab, 10 nM TFPI [12]: 85.2% | FXa assay % of FXa alone, 20 nM Ab, 10 nM TFPI [12]: 93.3% | FXa assay OD, 2.5 nM Ab, 10 nM TFPI [12]: 0.127 | FXa assay OD, 5 nM Ab, 10 nM TFPI [12]: 0.546 | FXa assay OD, 10 nM Ab, 10 nM TFPI [12]: 0.613 | FXa assay OD, 20 nM Ab, 10 nM TFPI [12]: 0.67 | Kd [13]: 6.7 pM | FXa assay % of FXa alone, 2.5 nM Ab, 10 nM TFPI [14]: 7.2% | FXa assay % of FXa alone, 5 nM Ab, 10 nM TFPI [14]: 10.2% | FXa assay % of FXa alone, 10 nM Ab, 10 nM TFPI [14]: 43.9% | FXa assay % of FXa alone, 20 nM Ab, 10 nM TFPI [14]: 66.9% | FXa assay OD, 2.5 nM Ab, 10 nM TFPI [14]: 0.0855 | FXa assay OD, 5 nM Ab, 10 nM TFPI [14]: 0.122 | FXa assay OD, 10 nM Ab, 10 nM TFPI [14]: 0.522 | FXa assay OD, 20 nM Ab, 10 nM TFPI [14]: 0.797 | FXa assay % of FXa alone, 2.5 nM Ab, 10 nM TFPI [15]: 5.4% | FXa assay % of FXa alone, 5 nM Ab, 10 nM TFPI [15]: 8% | FXa assay % of FXa alone, 10 nM Ab, 10 nM TFPI [15]: 30.7% | FXa assay % of FXa alone, 20 nM Ab, 10 nM TFPI [15]: 58.5% | FXa assay OD, 2.5 nM Ab, 10 nM TFPI [15]: 0.041 | FXa assay OD, 5 nM Ab, 10 nM TFPI [15]: 0.061 | FXa assay OD, 10 nM Ab, 10 nM TFPI [15]: 0.234 | FXa assay OD, 20 nM Ab, 10 nM TFPI [15]: 0.446 | FXa assay % of FXa alone, 2.5 nM Ab, 10 nM TFPI [16]: 5.5% | FXa assay % of FXa alone, 5 nM Ab, 10 nM TFPI [16]: 7.1% | FXa assay % of FXa alone, 10 nM Ab, 10 nM TFPI [16]: 28.8% | FXa assay % of FXa alone, 20 nM Ab, 10 nM TFPI [16]: 54.5% | FXa assay OD, 2.5 nM Ab, 10 nM TFPI [16]: 0.048 | FXa assay OD, 5 nM Ab, 10 nM TFPI [16]: 0.062 | FXa assay OD, 10 nM Ab, 10 nM TFPI [16]: 0.251 | FXa assay OD, 20 nM Ab, 10 nM TFPI [16]: 0.474
B1: clone T417 (antibody, V domains shown)
VH: EVHLVESGGDLVKPGGSLKLSCAASGFTFSSYAMSWVRQTPDKRLEWVATITTGGSYTYYPDSVKGRFTISRDNAKNTLYLQMSSLKSEDTAMYYCARQDGNFLMDYWGQGTTVTVSS
VL: not shown
notes: also called T417 chimeric antibody
